In patent US20210338656A1, “IMMUNOSTIMULATORY AGENTS IN COMBINATION WITH ANGIOGENESIS INHIBITORS” (Alkermes Pharma Ireland Limited, priority 2020, published 2021):

How the values were obtained:
[1] = test system: MC38 murine colon carcinoma cells; experiment: Anti-tumor efficacy in subcutaneous MC38 syngeneic tumor model (tumor growth, survival); format: in vivo, mouse; settings: for tumor growth inhibition (TGI): Day 11
Protocol: The characteristics of each animal study group, the administration of the test articles and timing, the collection of samples and the overall study design are as shown in Tables 1 and 2:
(68-72° F.) and 40-60% humidity.
Additional aliquots were stored at 4° C. for use within 72 hours of formulation. Just prior to administration, dosing solutions were remixed with gentle inversion.
Group mean tumor volumes were plotted versus time. When an animal exited the study because of tumor size or TR death, its final recorded tumor volume was included with the data used to calculate the mean volume. Mean tumor volumes were calculated for a group until 50% of the animals had exited the study. Kaplan-Meier plots show the percentage of animals in each group remaining in the study versus time.

[2] = Tolerability in vivo in mice relative to rhIL-2; set-up: species or system mouse; settings: doses that elicit equivalent or greater expansion of effector cells relative to Tregs
[3] = test system: gene expression in MC38 tumors; experiment: RNA-Seq gene expression in MC38 tumors, Day 10; format: in vivo, mouse
Protocol: On Day 10 spleens and tumors were collected and weighed from all animals in Groups 7 through 12 and weighed prior to processing. Tissues from four animals in each group were processed to single cell suspensions for flow cytometry analysis at CRL-NC (described below). Tissues from the remaining six animals in each group were preserved in RNAlater, stored at −80° C.
Tumors and spleens were dissected on the appropriate day of the study and were weighed and immediately placed in RNAlater Stabilizing Reagent to preserve the tissue and stored overnight at 4 deg C. The following day, the samples were removed from RNA later and snap frozen and placed at −80 deg C.
Unless otherwise indicated, everything was done on ice and the materials were prechilled on ice. The tissues were homogenized in TRIzol in Precellys tissue grinding tubes. After homogenization, the TRIzol solutions were transferred to 1.5 ml tubes and spun for 5 min at 12,000×g to eliminate the insoluble material. The TRIzol solutions were then transferred to Phasemaker tubes. Chloroform was added, the tubes were capped, and shaken vigorously for 15 seconds. The samples were then incubated at room temperature for 2-15 minutes and centrifuged at 12,000×g for 5 minutes. The upper, aqueous phase was then transferred to a new tube and an equal volume of 70% ethanol was added and it was vortexed. The liquid was then transferred to Qiagen RNeasy columns and centrifuged at 8000×g. DNAse was added to each tube to eliminate any residual DNA. The columns were then washed and eluted as directed by the kit. The RNA concentrations were determined using a Qubit.
Libraries were prepared for sequencing by using the Mouse Transcriptome Ion AmpliSeq Library Preparation on the Ion Chef System as directed by the manufacturer. Eight samples of purified RNA and 8 unique IonCode molecular barcodes were added to a 96 well plate and were prepared at a time. After the libraries were prepared, they were templated and loaded onto an Ion Torrent 540 chip using the Ion 540 Chef Kit from ThermoFisher. The 540 chips were then loaded into a Gene Studio S5 sequencer and sequenced.
Raw sequencing data was processed by Torrent Suite (v5.8.0) software that came with the Gene Studio sequencer (ThermoFisher). For each sample, this program summarized gene expression in a CHP file. The CHP files were then loaded into the Transcriptome Analysis Console (TAC) program (ThermoFisher).

[4] = T cell signaling gene, MC38 tumors Day 10 RNA-Seq, lucitanib 10 mg/kg po, SEQ ID NO. 2 3 mg/kg sc
[5] = Type I/II interferon pathway gene, MC38 tumors Day 10 RNA-Seq, lucitanib 10 mg/kg po, SEQ ID NO. 2 3 mg/kg sc
[6] = antigen presentation gene, MC38 tumors Day 10 RNA-Seq, lucitanib 10 mg/kg po, SEQ ID NO. 2 3 mg/kg sc

B1: SEQ ID NO: 2: mouse ortholog construct (murine surrogate) of the circularly permuted IL-2/IL-2Rα fusion protein of SEQ ID NO: 1 (protein)
chain: SKSFQLEDAENFISNIRVTVVKLKGSDNTFECQFDDESATVVDFLRRWIAFCQSIISTSPQGGSSSTQQQQQHLEQLLMDLQELLSRMENYRNLKLPRMLTFKFYLPKQATELKDLQCLEDELGPLRHVLDLTQGSGGGSELCLYDPPEVPNATFKALSYKNGTILNCECKRGFRRLKELVYMRCLGNSWSSNCQCTSNSHDKSRKQVTAQLEHQKEQQTTTDMQKPTQSMHQENLTGHCREPPPWKHEDSKRIYHFVEGQSVHYECIPGYKALQRGPAISICKMKCGKTGWTQPQLTCVDGSHHHHHH
modifications: Mouse cpIL-2IL-2R-alpha
tumor growth inhibition (TGI) ([1]; SEQ ID NO: 2 monotherapy 1.5 mg/kg s.c. once every 3 days): 25%
tumor growth inhibition (TGI) ([1]; SEQ ID NO: 2 monotherapy 3 mg/kg s.c. once every 3 days): 51%
median survival time ([1]; SEQ ID NO: 2 monotherapy 1.5 mg/kg s.c.): 18 days
median survival time ([1]; SEQ ID NO: 2 monotherapy 3 mg/kg s.c.): 22 days
complete response (number) ([1]; SEQ ID NO: 2 monotherapy arms): 1
durable complete tumor regressions ([1]; either dose (1.5 or 3 mg/kg) of SEQ ID NO: 2 monotherapy, groups pooled): 1/20
tumor growth outcome (summary in words) ([1]; treatment arm summaries): modest tumor growth inhibition
tolerability relative to recombinant human IL-2 (rhIL-2) [2]: improved tolerability
Cd3e mean expression value relative to vehicle group [3, 4]: 3.81
Cd4 mean expression value relative to vehicle group [3, 4]: 1.46
Cd8a mean expression value relative to vehicle group [3, 4]: 4.64
Cd8b1 mean expression value relative to vehicle group [3, 4]: 8.03
Cd28 mean expression value relative to vehicle group [3, 4]: 2.86
Cd247 mean expression value relative to vehicle group [3, 4]: 3.95
Cd3d mean expression value relative to vehicle group [3, 4]: 5.96
Ctla4 mean expression value relative to vehicle group [3, 4]: 0.60
H2-Aa mean expression value relative to vehicle group [3, 4]: 1.27
H2-Ab1 mean expression value relative to vehicle group [3, 4]: 2.25
H2-Eb1 mean expression value relative to vehicle group [3, 4]: 1.29
Icos mean expression value relative to vehicle group [3, 4]: 1.69
Ifng mean expression value relative to vehicle group [3, 4]: 2.06
Il2 mean expression value relative to vehicle group [3, 4]: 0.31
Lck mean expression value relative to vehicle group [3, 4]: 4.42
Lcp2 mean expression value relative to vehicle group [3, 4]: 0.23
Nfatc2 mean expression value relative to vehicle group [3, 4]: 0.67
Pdcd1 mean expression value relative to vehicle group [3, 4]: 2.42
Ptpn22 mean expression value relative to vehicle group [3, 4]: 2.19
Ptprc mean expression value relative to vehicle group [3, 4]: 2.32
Zap70 mean expression value relative to vehicle group [3, 4]: 2.63
B2m mean expression value relative to vehicle group [3, 5]: 0.03
Bst2 mean expression value relative to vehicle group [3, 5]: 0.08
Cd44 mean expression value relative to vehicle group [3, 5]: −0.19
Ciita mean expression value relative to vehicle group [3, 5]: 1.36
Fcgr1 mean expression value relative to vehicle group [3, 5]: 1.12
Gm10499 mean expression value relative to vehicle group [3, 5]: −0.02
H2-Aa mean expression value relative to vehicle group [3, 5]: 1.27
H2-Ab1 mean expression value relative to vehicle group [3, 5]: 2.25
H2-Eb1 mean expression value relative to vehicle group [3, 5]: 1.29
H2-K1 mean expression value relative to vehicle group [3, 5]: 0.04
H2-Q10 mean expression value relative to vehicle group [3, 5]: −0.28
Icam1 mean expression value relative to vehicle group [3, 5]: 0.88
Ifi35 mean expression value relative to vehicle group [3, 5]: 0.38
Ifit2 mean expression value relative to vehicle group [3, 5]: 0.54
Ifitm1 mean expression value relative to vehicle group [3, 5]: −0.13
Ifna2 mean expression value relative to vehicle group [3, 5]: 0
Ifnar1 mean expression value relative to vehicle group [3, 5]: 0.35
Ifnar2 mean expression value relative to vehicle group [3, 5]: 0.2
Ifnb1 mean expression value relative to vehicle group [3, 5]: −0.16
Ifng mean expression value relative to vehicle group [3, 5]: 2.06
Ifngr1 mean expression value relative to vehicle group [3, 5]: 0.23
Irf1 mean expression value relative to vehicle group [3, 5]: −0.01
Irf4 mean expression value relative to vehicle group [3, 5]: 0.92
Irf5 mean expression value relative to vehicle group [3, 5]: 0.43
Irf8 mean expression value relative to vehicle group [3, 5]: 1.46
Mx1 mean expression value relative to vehicle group [3, 5]: 0.6
Ncam1 mean expression value relative to vehicle group [3, 5]: −0.2
Pml mean expression value relative to vehicle group [3, 5]: 0.62
Ptpn6 mean expression value relative to vehicle group [3, 5]: 0.36
Socs3 mean expression value relative to vehicle group [3, 5]: 0.09
Tyk2 mean expression value relative to vehicle group [3, 5]: 0.36
Vcam1 mean expression value relative to vehicle group [3, 5]: 0.13
B2m mean expression value relative to vehicle group [3, 6]: 0.03
Btk mean expression value relative to vehicle group [3, 6]: 0.06
Cd14 mean expression value relative to vehicle group [3, 6]: 0.51
Cd36 mean expression value relative to vehicle group [3, 6]: −0.08
Cd74 mean expression value relative to vehicle group [3, 6]: 1.14
Ctsc mean expression value relative to vehicle group [3, 6]: 0.82
Ctss mean expression value relative to vehicle group [3, 6]: 1.2
Cybb mean expression value relative to vehicle group [3, 6]: 0.8
Fcgr1 mean expression value relative to vehicle group [3, 6]: 1.12
H2-Aa mean expression value relative to vehicle group [3, 6]: 1.27
H2-Ab1 mean expression value relative to vehicle group [3, 6]: 2.25
H2-DMa mean expression value relative to vehicle group [3, 6]: 1.16
H2-DMb2 mean expression value relative to vehicle group [3, 6]: 0.65
H2-Ea-ps mean expression value relative to vehicle group [3, 6]: 0
H2-Eb1 mean expression value relative to vehicle group [3, 6]: 1.29
H2-K1 mean expression value relative to vehicle group [3, 6]: 0.04
H2-Ob mean expression value relative to vehicle group [3, 6]: 1.61
H2-Q10 mean expression value relative to vehicle group [3, 6]: −0.28
Ly96 mean expression value relative to vehicle group [3, 6]: 0.27
Ncf4 mean expression value relative to vehicle group [3, 6]: 0.86
Psmb9 mean expression value relative to vehicle group [3, 6]: 0.03
Tap1 mean expression value relative to vehicle group [3, 6]: 0.12
Tlr1 mean expression value relative to vehicle group [3, 6]: 0.62
Tlr2 mean expression value relative to vehicle group [3, 6]: 0.36
Tlr4 mean expression value relative to vehicle group [3, 6]: 0.21
expression of genes associated with cytotoxic immune cell function and T cell activation ([3]; tumors): Increased expression
